One series concerns the target T1, DinGNm (Neisseria meningitidis, UniProt Q9K181).
T1 construct: gene dinG; full-length gene amplified from MC58 genomic DNA, C-terminal 6xHis tag (pET-28b(+), pSB13), E. coli NiCo21(DE3); Ni-NTA and Resource Q; iron-containing (4 Fe per protein)
T1 sequence (Q9K181 1-716): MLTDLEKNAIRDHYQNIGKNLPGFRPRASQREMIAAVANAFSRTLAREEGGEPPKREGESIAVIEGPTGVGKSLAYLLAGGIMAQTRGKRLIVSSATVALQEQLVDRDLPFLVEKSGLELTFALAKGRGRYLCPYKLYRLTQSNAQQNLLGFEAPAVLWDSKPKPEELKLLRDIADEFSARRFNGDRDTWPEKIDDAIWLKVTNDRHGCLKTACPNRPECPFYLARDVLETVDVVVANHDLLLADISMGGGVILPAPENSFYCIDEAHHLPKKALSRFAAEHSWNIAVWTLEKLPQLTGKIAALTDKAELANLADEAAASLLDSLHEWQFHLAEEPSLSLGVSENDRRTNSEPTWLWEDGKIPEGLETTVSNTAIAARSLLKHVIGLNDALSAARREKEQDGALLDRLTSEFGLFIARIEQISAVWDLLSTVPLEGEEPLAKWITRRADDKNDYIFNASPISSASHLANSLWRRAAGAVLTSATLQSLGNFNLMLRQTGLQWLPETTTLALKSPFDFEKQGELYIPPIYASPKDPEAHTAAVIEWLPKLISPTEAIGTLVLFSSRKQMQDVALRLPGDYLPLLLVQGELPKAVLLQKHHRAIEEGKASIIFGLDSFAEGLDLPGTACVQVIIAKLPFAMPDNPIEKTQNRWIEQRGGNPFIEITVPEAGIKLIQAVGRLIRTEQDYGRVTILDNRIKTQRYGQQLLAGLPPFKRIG
The series can be described thus: forked DNA (T1+B1) unwinding, native PAGE. The note with it: 2 mM nucleotide, 2 mM Mg2+, 400 nM DinG, pH 7.5, 37 °C; read-out is nucleotide-dependent unwinding. Format: biochemical.

Series [1] addresses T2, Neisseria meningitidis helicase DinG (DinGNm) (N. meningitidis MC58, UniProt Q9K181 1-716).
T2 construct: DinG helicase of Neisseria meningitidis strain MC58, gene amplified from genomic DNA and cloned into pET-28b(+) (plasmid pSB13); also called Nm DinG; DNA damage-inducible protein DinG; source: E. coli NiCo21 (DE3) with pLysS, purified (Ni-NTA, Resource Q ion exchange)
T2 sequence (looked up): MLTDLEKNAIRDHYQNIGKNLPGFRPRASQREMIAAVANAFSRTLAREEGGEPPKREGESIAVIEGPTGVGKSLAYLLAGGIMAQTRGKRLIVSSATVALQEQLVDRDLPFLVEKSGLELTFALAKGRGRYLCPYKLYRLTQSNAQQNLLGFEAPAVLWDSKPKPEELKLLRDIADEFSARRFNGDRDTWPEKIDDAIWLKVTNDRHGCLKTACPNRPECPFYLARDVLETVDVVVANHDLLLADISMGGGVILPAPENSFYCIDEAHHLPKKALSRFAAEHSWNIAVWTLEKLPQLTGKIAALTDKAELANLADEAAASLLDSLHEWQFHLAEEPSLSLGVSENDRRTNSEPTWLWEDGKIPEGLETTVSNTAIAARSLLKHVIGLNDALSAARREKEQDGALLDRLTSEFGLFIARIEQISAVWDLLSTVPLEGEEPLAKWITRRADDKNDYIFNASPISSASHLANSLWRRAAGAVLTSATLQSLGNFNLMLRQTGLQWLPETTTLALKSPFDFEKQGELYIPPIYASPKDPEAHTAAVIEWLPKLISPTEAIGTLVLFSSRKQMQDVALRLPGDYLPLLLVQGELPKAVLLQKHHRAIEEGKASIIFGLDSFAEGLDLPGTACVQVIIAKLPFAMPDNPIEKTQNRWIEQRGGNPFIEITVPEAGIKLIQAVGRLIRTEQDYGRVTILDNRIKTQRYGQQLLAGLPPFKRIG
Briefly: MST; SSB proteins labelled (RED-NHS, 20.7 nM), DinG proteins titrated as ligands; 20 mM HEPES pH 7.5, 300 mM NaCl, 0.05% Tween 20, 0.1% Pluronic F-127, 0.1% PEG 8000, 2 mM DTT; 22°C, 20% MST power. Conditions: both partners purified.

The target of the next series is DinGNmK72A (Neisseria meningitidis MC58, UniProt Q9K181 1-716, K72A). Briefly: EMSA; protein titration; mutant retained DNA binding affinity; EMSA: 40 mM Tris-HCl pH 8, 2.5 mM EDTA, 2 mM MgCl2, 100 mg/ml BSA (so in the source), 6% glycerol, 2 mM DTT, 0.1 nM 32P-DNA, 15 min on ice; 5% native PAGE in ice bath. Conditions: protein: recombinant; tags: C-terminal 6xHis; label: 32P; single strand. For orientation: Mobility shift assays separate free from complexed probe on a gel.

Series [2] has as its target SSBNmΔ8C (N. meningitidis MC58). The series can be described thus: MST; SSB proteins labelled (RED-NHS, 20.7 nM), DinG proteins titrated as ligands; 20 mM HEPES pH 7.5, 300 mM NaCl, 0.05% Tween 20, 0.1% Pluronic F-127, 0.1% PEG 8000, 2 mM DTT; 22°C, 20% MST power.

For the molecule `Nc1ncnc2c1ncn2[C@H]1C[C@H](O)[C@@H](COP(=O)(O)OP(=O)(O)OP(=O)(O)O)O1` [dATP], the “forked DNA (T1+B1) unwinding, native PAGE” value at DinGNm is given as “unwinding activity of DinGNm was observed only in the presence of ATP or dATP”.

B1: Neisseria meningitidis single-stranded DNA binding protein (SSBNm) (natural protein, N. meningitidis MC58, UniProt P66848 1-174, looked up)
chain: MSLNKVILIGRLGRDPEVRYMPNGEAVCNFSVATSETWNDRNGQRVERTEWHNITMYRKLAEIAGQYLKKGGLVYLEGRIQSRKYQGKDGIERTAYDIVANEMKMLGGRNENSGGAPYEEGYGQSQEAYQRPAQQSRQPASDAPSHPQEAPAAPRRQPVPAAAPVEDIDDDIPF
modifications: in the MST assay labelled with the Monolith NT Protein Labeling Kit RED-NHS, degree of labelling 0.7
notes: SSB of Neisseria meningitidis, expression vector pEH1; Unlabelled in the ammonium sulphate co-precipitation
What is called Kd is a measure of binding affinity in units of concentration. The low end stands for higher affinity, the high end for lower affinity. In series [1], B1 gave a Kd of 1.36 ± 0.11 µM.

B2: poly dT100 (ssDNA)
DNA: TTTTTTTTTTTTTTTTTTTTTTTTTTTTTTTTTTTTTTTTTTTTTTTTTTTTTTTTTTTTTTTTTTTTTTTTTTTTTTTTTTTTTTTTTTTTTTTTTTTT
With B2, the binding result with DinGNmK72A is recorded as “binds”.

B3: Neisseria meningitidis helicase DinG (DinGNm) (enzyme)
chain: MLTDLEKNAIRDHYQNIGKNLPGFRPRASQREMIAAVANAFSRTLAREEGGEPPKREGESIAVIEGPTGVGKSLAYLLAGGIMAQTRGKRLIVSSATVALQEQLVDRDLPFLVEKSGLELTFALAKGRGRYLCPYKLYRLTQSNAQQNLLGFEAPAVLWDSKPKPEELKLLRDIADEFSARRFNGDRDTWPEKIDDAIWLKVTNDRHGCLKTACPNRPECPFYLARDVLETVDVVVANHDLLLADISMGGGVILPAPENSFYCIDEAHHLPKKALSRFAAEHSWNIAVWTLEKLPQLTGKIAALTDKAELANLADEAAASLLDSLHEWQFHLAEEPSLSLGVSENDRRTNSEPTWLWEDGKIPEGLETTVSNTAIAARSLLKHVIGLNDALSAARREKEQDGALLDRLTSEFGLFIARIEQISAVWDLLSTVPLEGEEPLAKWITRRADDKNDYIFNASPISSASHLANSLWRRAAGAVLTSATLQSLGNFNLMLRQTGLQWLPETTTLALKSPFDFEKQGELYIPPIYASPKDPEAHTAAVIEWLPKLISPTEAIGTLVLFSSRKQMQDVALRLPGDYLPLLLVQGELPKAVLLQKHHRAIEEGKASIIFGLDSFAEGLDLPGTACVQVIIAKLPFAMPDNPIEKTQNRWIEQRGGNPFIEITVPEAGIKLIQAVGRLIRTEQDYGRVTILDNRIKTQRYGQQLLAGLPPFKRIG
In the case of B3, in series [2], the Kd came to 3.71 µM.

For the origin of these results see publication PMC5679670, “The helicase DinG responds to stress due to DNA double strand breaks” (PLoS ONE, 2017).
